Data taken from patent publication US20210284734A1 (SYMPHOGEN A S, published 2021).
Changes are numbered by the printed parent chain.

B1: 12865.17150 Fab (Fab, V domains shown)
VH: EVQLLESGGGLVQPGGSLRLSCAASGFDFSDHGMQWVRQAPGKGLEYVGVIDTTGRYTYYAPAVKGRATISRDNSKNTLYLQMNSLRAEDTAVYYCAKTTCVGGYLCNTVGSIDAWGQGTLVTVSS
VL: SYELTQDPAVSVALGQTVRITCSGGGSSSYYGWYQQKPGQAPVTVIYDDTNRPSGIPDRFSGSSSGNTASLTITGAQAEDEADYYCGGYEGSSHAGIFGSGTKVTVL
notes: monomeric Fab fragment
B2: 13112.15380 Fab (Fab, V domains shown)
VH: EVQLLESGGGLVQPGGSLRLSCAASGFTFSSYNMFWVRQAPGKGLEFVAEISGSNTGSRTWYAPAVKGRATISRDNSKNTLYLQMNSLRAEDTAVYYCAKSIYGGYCAGGYSCGVGLIDAWGQGTLVTVSS
VL: SYELTQDPAVSVALGQTVRITCSGGSSDYYGWFQQKPGQAPVTVIYYNNKRPSDIPDRFSGSSSGNTASLTITGAQAEDEADYYCGNADSSVGVFGSGTKVTVL
B3: 12819.17149 Fab (Fab, V domains shown)
VH: EVQLLESGGGLVQPGGSLRLSCAASGFTFTRYDMVWVRQAPGKGLEWVAGIGDSNKMTRYAPAVKGRATISRDNSKNTLYLQMNSLRAEDTAVYYCAKGSCIACWDEAGRIDAWGQGTLVTVSS
VL: SYELTQDPAVSVALGQTVRITCSGGGSYDGSSYYGWYQQKPGQAPVTVIYNNNNRPSDIPDRFSGSSSGNTASLTITGAQAEDEADYYCGSYDRPETNSDYVGMFGSGTKVTVL
notes: monomeric Fab fragment

Legend:
Assay in all cases: SPR, Fab on captured PD-1-Fc
[1] = target: T1, human PD-1 ECD-Fc chimeric construct 21 (human, UniProt Q15116 21-170)
T1 construct: printed run together as I134VK135V; not shown: human IgG1 Fc, residues P101-K330
T1 chain: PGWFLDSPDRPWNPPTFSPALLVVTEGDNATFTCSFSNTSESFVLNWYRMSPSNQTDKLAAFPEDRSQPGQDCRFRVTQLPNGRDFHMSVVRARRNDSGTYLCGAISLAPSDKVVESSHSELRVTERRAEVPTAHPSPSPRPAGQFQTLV

[2] = target: T2, human PD-1 ECD-Fc chimeric construct 8 (human, UniProt Q15116 21-170)
T2 construct: not shown: human IgG1 Fc, residues P101-K330
T2 chain: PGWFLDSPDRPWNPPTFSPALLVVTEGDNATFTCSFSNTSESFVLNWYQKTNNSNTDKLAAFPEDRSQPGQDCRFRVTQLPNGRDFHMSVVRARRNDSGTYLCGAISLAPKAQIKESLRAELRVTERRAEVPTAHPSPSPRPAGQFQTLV

[3] = target: T3, human PD-1 ECD-Fc chimeric construct 3 (human, UniProt Q15116 21-170)
T3 construct: not shown: human IgG1 Fc, residues P101-K330
T3 chain: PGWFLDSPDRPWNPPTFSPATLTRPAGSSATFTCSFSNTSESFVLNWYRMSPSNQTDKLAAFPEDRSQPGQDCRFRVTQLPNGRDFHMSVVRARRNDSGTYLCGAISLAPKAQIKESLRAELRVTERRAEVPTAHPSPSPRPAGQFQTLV

[4] = target: T4, human PD-1 ECD-Fc chimeric construct 22 (human, UniProt Q15116 21-170)
T4 construct: not shown: human IgG1 Fc, residues P101-K330
T4 chain: T1 chain with S111K, D112A, K113Q, V114I, V115K, E121Q, R123V

[5] = target: T5, human PD-1 ECD-Fc chimeric construct 4 (human, UniProt Q15116 21-170)
T5 construct: not shown: human IgG1 Fc, residues P101-K330
T5 chain: T3 chain with T21L, T23V, R24V, P25T, T33I, S35N

[6] = target: T6, human PD-1 ECD-Fc chimeric construct 15 (human, UniProt Q15116 21-170)
T6 construct: not shown: human IgG1 Fc, residues P101-K330
T6 chain: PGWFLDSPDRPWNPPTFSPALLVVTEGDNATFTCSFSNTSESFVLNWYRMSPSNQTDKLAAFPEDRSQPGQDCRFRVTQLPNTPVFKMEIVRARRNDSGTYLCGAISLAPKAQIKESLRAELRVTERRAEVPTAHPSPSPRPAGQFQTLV

[7] = target: T7, human PD-1 ECD-Fc chimeric construct 5 (human, UniProt Q15116 21-170)
T7 construct: 'S56I' as printed; not shown: C-terminal human IgG Fc (printed as residues P101-K330)
T7 chain: T6 chain with T33I, S35N, F36I, T39S, T83G, P84R, V85D, K87H, E89S, I90V

[8] = target: T8, human PD-1 ECD-Fc chimeric construct 17 (human, UniProt Q15116 21-170)
T8 construct: not shown: human IgG1 Fc, residues P101-K330
T8 chain: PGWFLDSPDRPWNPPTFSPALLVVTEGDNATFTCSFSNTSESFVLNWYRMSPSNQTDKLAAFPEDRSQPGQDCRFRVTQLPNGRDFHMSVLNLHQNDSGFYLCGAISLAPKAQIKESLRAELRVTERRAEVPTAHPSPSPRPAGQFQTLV

[9] = target: T9, human PD-1 ECD-Fc chimeric construct 2 (human, UniProt Q15116 21-170)
T9 construct: not shown: human IgG1 Fc, residues P101-K330
T9 chain: T3 chain with F17L, S18F, A26E, S28D, S29N

[10] = target: T10, human PD-1 ECD-Fc chimeric construct 12 (human, UniProt Q15116 21-170)
T10 construct: not shown: human IgG1 Fc, residues P101-K330
T10 chain: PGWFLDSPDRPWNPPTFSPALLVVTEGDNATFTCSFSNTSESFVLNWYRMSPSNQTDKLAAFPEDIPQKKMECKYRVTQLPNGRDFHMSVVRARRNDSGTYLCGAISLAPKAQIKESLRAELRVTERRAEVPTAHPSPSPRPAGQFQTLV

[11] = target: T11, human PD-1 ECD-Fc chimeric construct 23 (human, UniProt Q15116 21-170)
T11 construct: not shown: human IgG1 Fc, residues P101-K330

[12] = target: T12, human PD-1 ECD-Fc chimeric construct 6 (human, UniProt Q15116 21-170)
T12 construct: not shown: human IgG1 Fc, residues P101-K330
T12 chain: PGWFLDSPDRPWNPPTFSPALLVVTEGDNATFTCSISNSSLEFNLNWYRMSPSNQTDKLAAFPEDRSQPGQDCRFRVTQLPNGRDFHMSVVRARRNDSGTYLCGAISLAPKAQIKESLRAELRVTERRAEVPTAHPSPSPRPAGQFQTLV

[13] = target: T13, human PD-1 ECD-Fc chimeric construct 16 (human, UniProt Q15116 21-170)
T13 construct: not shown: human IgG1 Fc, residues P101-K330
T13 chain: T8 chain with H87K, S89E, V90I, F100T

Binder	binding result [1]	binding result [2]	KD mutant/KD wild-type [3] [ratio]	KD mutant/KD wild-type [4] [ratio]	KD mutant/KD wild-type [5] [ratio]	KD mutant/KD wild-type [6] [ratio]	KD mutant/KD wild-type [7] [ratio]	KD mutant/KD wild-type [8] [ratio]	KD mutant/KD wild-type [9] [ratio]	KD mutant/KD wild-type [10] [ratio]	KD mutant/KD wild-type [11] [ratio]	KD mutant/KD wild-type [12] [ratio]	KD mutant/KD wild-type [13] [ratio]	KD mutant/KD wild-type [1] [ratio]	KD mutant/KD wild-type [2] [ratio]
B1	no binding (tested: 1 nM to 50 nM)	no binding (tested: 1 nM to 50 nM)	0.6	1	0.6	0.8	0.9	0.5	0.7	0.6	1	0.2	0.4		
B2			0.7	1	0.6	0.9	2.5	0.7	1	0.6	1.5	0.8	0.7	0.5	1.6
B3	no binding (tested: 1 nM to 50 nM)		1.3	1.9	0.3	1.3	1.2	0.2	2.3	2.2	1.7	7.1	3.6		6.4
